Non-standard residues stand in square brackets, D forms with d. No end group written: not given here. *: point of attachment. Nal = naphthylalanine (isomer not specified); Dansyl = CN(C)c1cccc2c(S(=O)(=O)*)cccc12; Aib = CC(C)(N)C(=O)O
T1: lecithin:cholesterol acyltransferase (LCAT), purified from human plasma (human, UniProt P04180 25-440)
T1 sequence (looked up): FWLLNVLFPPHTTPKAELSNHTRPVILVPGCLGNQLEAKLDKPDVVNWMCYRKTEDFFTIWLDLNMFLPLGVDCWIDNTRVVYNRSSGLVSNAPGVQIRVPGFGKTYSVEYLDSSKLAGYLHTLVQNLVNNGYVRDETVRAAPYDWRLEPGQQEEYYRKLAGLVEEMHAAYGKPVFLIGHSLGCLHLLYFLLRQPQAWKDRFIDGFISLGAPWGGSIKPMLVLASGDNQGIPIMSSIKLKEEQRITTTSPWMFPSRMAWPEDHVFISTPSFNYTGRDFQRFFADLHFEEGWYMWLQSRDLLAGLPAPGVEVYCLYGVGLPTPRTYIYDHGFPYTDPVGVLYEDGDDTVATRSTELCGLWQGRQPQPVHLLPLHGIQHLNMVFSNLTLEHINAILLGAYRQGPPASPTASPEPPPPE


The binders below were run against T1, lecithin:cholesterol acyltransferase … (assay: cell-based or functional assay).

Binder	ACTIVITY (%) LCAT
PVLDLFRELLNELLELLKQKLK [peptide 26]	47%
PVLDLFREWLNELLEALKQKLK [peptide 37]	29%
DWLKAFYDKVFEKFKEFF [peptide 245]	4%
PVLDLFRELLNE[Aib]LEAWKQKLK [peptide 38]	29%
PVLDLFRELLNEL[Nal]EALKQKLK (not fully specified) [peptide 27]	44%
GIKKFLGSIWKFIKAFVG [peptide 242]	7%
Ac-PVLDLFRELLEEGKQKLK-NH2 [peptide 229]	0%
PVLDLFRELLNELLEWLKQKLK [peptide 3]	98%
GVLDLFRELLNELLEALKQKLKK [peptide 2]	105%
PVLDLFRELLEELQKKLK [peptide 220]	22%
DWFKAFYDKFFEKFKEFF [peptide 247]	3%
PLLELLKELLQELLEALKQKLK [peptide 36]	31%
DWFKAFYDKVFEKFKEFF [peptide 241]	8%
PVLDLFRELLNELLEALKQKLK [peptide 4]	93%
XVLDLFRELLNELLEALKQKLKK (D-Pro (p) at 1) [peptide 5]	90%
PVLDLFRELLNELWEALKQKLK [peptide 28]	40%
Ac-EWLEAFYKKVLEKLKELF-NH2 [peptide 239]	11%
PVLDLFRELLEELLKALKKKLK [peptide 39]	25%
PVLDAFRELGEALLQLKK [peptide 226]	1%

Binder	ACTIVITY (%) LCAT
PVLDWFRELLNELLEALKQKLK [peptide 35]	31%
PVLDLFNELLRELLEALQKKLK [peptide 40]	25%
Ac-PVLDLFREGLEELKQKLK-NH2 [peptide 228]	0%
Ac-EWLKAFYEKVLEKLKELF-NH2 [peptide 238]	19%
PVLDLFREKLNE[Aib]LEALKQKLK [peptide 46]	23%
PVLDLFRNLLEKLLEALEQKLK [peptide 49]	22%
PVLDLFLELLNE[Aib]LEALKQKLK [peptide 31]	34%
PVLDLFRELLNELLEGLKQKLK [peptide 22]	54%
PLLELFKELLQELLEALKQKLK [peptide 23]	54%
DWFKAFYDKVAEKFKEAF [peptide 243]	5%
Dansyl-PVLDLFRELLNELLEALKQKLK [peptide 30]	38%
Ac-DVLDLFRELLEELKQKLK-NH2 [peptide 221]	12%
VLDLFRELLNEGLEALKQKLK [peptide 47]	23%
PVLDLFRELLWE[Aib]LEALKQKLK [peptide 50]	21%
PVLDFFRELLNE[Aib]LEALKQKLK [peptide 25]	51%
PVLDAFRELAEALAQLKK [peptide 225]	1%
[dP][dV][dL][dD][dE][dF][dR][dE][dK][dL][dN][dE][Aib][dL][dE][dA][dL][dK][dQ][dK][dL][dK] [peptide 44]	25%
AVLDLFRELLNELLEALKQKLK [peptide 29]	39%
LDDLLQKWAEAFNQLLKK [peptide 237]	11%

Binder	ACTIVITY (%) LCAT
[Aib]VLDLFRELLNELLEALKQKLK [peptide 32]	33%
Ac-DWLKAFYDKVAEKLKEAF-NH2 [peptide 240]	10%
PVLDEFREKLNE[Aib]LEALKQKLK [peptide 45]	24%
PVLD[Nal]FRELLNELLEALKQKLK (not fully specified) [peptide 34]	32%
PVLDEFREKLWE[Aib]LEALKQKLK [peptide 43]	25%
PVLDAFRELLEALLQLKK [peptide 222]	8%
PVLDLFREGLNELLEALKQKLK [peptide 20]	57%
XXLDLFRELLNELLEALKQKLK (D-Pro (p) at 1, D-Val (v) at 2) [peptide 48]	22%
XVLDLFRELLNELLEALKQKLK (D-Pro (p) at 1) [peptide 21]	57%
EWLEAFYKKVLEKLKELF [peptide 246]	4%
Ac-PVLDLFRELGEELKQKLK-NH2 [peptide 227]	0%
PVLDLFREGWEELKQKLK [peptide 224]	8%
DWLKAFYDKVAEKLKEAF [peptide 244]	5%
PVLDLWRELLNE[Aib]LEALKQKLK [peptide 41]	25%
PVLDAFRELLEALAQLKK [peptide 223]	8%
PVLDLFRELLNELLEALQKKLK [peptide 24]	53%
PVLDLFREKLNELLEALKQKLK [peptide 33]	33%
PVLDEFREKLNE[Aib]WEALKQKLK [peptide 42]	25%

Source: patent publication US20050080013A1 (Pfizer, published 2005)
